Reference: article PMC2699497

Experiments:
[1] = target: T1, human uracil DNA glycosylase (UNG) (human, UniProt P13051 94-313); assay: NMR HSQC titration, relaxation dispersion
[2] = target: T1, human uracil DNA glycosylase (UNG); assay: fluorescence anisotropy

T1 sequence (P13051 94-313): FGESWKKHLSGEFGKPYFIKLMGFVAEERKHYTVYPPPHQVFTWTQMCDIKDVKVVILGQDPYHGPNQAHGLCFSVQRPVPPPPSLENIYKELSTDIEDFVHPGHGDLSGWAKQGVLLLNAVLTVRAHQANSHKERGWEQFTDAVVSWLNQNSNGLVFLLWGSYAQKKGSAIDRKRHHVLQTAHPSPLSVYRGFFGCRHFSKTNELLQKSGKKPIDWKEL

B1: unlabeled 10-mer nontarget duplex (NMR) (dsDNA)
DNA 1: CTGGATCCAG
DNA 2: CTGGATCCAG
[1]
  binding result: binds

B2: 5'-FAM 10-mer nontarget duplex (dsDNA)
DNA 1: TCGATCGATG
DNA 2: CATCGATCGA
[2]
  Kd: 29 ± 0.4 µM
